Changes are numbered by the printed parent chain.
B1: SRP2188-A02 (antibody, IgG1, V domains shown)
VH: EVQLVESGGGLVQPGGSLRLSCAASGFNIKSYDIHWVRQAPGKGLEWVGWINPEDGDTYYADSVKGRFTISADTSKNTAYLQMNSLRAEDTAVYYCARDFGVFDYWGQGTLVTVSS
VL: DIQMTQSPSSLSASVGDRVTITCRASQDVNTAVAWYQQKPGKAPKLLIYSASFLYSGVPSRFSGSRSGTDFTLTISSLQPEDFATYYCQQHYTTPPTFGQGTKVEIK
notes: IgG1 with trastuzumab LC; HIS- and FLAG-tagged; cell-free expressed
B2: SRP2188-A08 (antibody, IgG1, V domains shown)
VH: B1 VH with K30H, S31N, Y32F, E54F, Q82R, V93A, F100Y
VL: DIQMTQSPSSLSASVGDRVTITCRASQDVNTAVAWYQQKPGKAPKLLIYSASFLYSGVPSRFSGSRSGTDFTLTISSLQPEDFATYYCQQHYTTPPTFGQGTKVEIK
notes: as for B1
B3: SRP2188-E05 (antibody, IgG1, V domains shown)
VH: B1 VH with K30S, S31D, G49A, W50G, N52E, E54W, D57S, Y59D, Y60H, F100Y
VL: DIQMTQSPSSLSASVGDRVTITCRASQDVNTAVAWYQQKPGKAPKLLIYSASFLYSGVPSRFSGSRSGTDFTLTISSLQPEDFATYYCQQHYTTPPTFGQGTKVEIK
notes: as for B1
B4: SRP2188-B09 (antibody, IgG1, V domains shown)
VH: B1 VH with K30N, W50V, N52D, E54K, D57W, Y59D, Y60H, A88T, F100Y
VL: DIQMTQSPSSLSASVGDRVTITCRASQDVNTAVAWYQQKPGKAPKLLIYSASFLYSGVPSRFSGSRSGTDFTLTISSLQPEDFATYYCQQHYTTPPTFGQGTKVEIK
notes: as for B1
B5: SRP2188-E06 (antibody, IgG1, V domains shown)
VH: B1 VH with K30G, S31D, W50G, N52D, D57A, Y59D, Y60I, N84D, F100Y
VL: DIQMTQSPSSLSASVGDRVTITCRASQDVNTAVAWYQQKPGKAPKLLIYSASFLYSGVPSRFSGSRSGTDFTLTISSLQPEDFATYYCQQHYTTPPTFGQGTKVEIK
notes: as for B1
B6: SRP2188-D05 (antibody, IgG1, V domains shown)
VH: B1 VH with K30S, S31E, W50G, N52D, E54H, D57W, Y59D, Y60H, F100Y, F103Y
VL: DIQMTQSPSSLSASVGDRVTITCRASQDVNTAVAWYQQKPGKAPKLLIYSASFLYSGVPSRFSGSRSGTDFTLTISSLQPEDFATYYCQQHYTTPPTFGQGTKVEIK
notes: as for B1
B7: SRP2188-C04 (antibody, IgG1, V domains shown)
VH: B1 VH with K30N, Y60H, K65R, F100Y, F103Y
VL: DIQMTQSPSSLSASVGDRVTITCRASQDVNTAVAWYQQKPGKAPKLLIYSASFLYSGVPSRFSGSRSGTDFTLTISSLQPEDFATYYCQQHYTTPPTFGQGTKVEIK
notes: as for B1
B8: SRP2188-B11 (antibody, IgG1, V domains shown)
VH: B1 VH with K30N, S31R, E54D, Y59F, Y60L, N77S, F100Y
VL: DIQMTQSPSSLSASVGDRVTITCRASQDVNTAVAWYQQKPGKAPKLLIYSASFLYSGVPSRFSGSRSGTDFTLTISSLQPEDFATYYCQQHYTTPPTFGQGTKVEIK
notes: as for B1
B9: SRP2188-C05 (antibody, IgG1, V domains shown)
VH: B1 VH with K30N, Y32F, W50G, N52D, E54R, D57S, Y59D, Y60S, F100Y
VL: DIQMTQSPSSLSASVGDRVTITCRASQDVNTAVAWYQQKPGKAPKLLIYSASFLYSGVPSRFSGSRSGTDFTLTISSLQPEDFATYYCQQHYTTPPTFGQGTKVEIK
notes: as for B1
B10: SRP2188-C08 (antibody, IgG1, V domains shown)
VH: B1 VH with Y32H, E54D, Y60H, F100Y
VL: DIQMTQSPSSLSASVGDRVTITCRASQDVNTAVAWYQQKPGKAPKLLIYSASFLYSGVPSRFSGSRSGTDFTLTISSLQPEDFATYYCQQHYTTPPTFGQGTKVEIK
notes: as for B1
B11: SRP2188-C01 (antibody, IgG1, V domains shown)
VH: B1 VH with K30I, G49S, W50L, N52D, E54H, D57S, Y59D, Y60S, F100Y
VL: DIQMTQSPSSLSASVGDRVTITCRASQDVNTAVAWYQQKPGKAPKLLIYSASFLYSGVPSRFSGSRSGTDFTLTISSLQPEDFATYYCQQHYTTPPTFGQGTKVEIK
notes: as for B1
B12: SRP2188-F01 (antibody, IgG1, V domains shown)
VH: B1 VH with K30R, S31Y, W50L, N52D, E54D, D57W, Y59V, Y60S, F100Y
VL: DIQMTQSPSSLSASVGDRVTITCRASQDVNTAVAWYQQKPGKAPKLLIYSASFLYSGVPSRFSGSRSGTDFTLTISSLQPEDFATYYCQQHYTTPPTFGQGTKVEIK
notes: as for B1
B13: SRP2188-A06 (antibody, IgG1, V domains shown)
VH: B1 VH with E54D, Y60H, F100Y
VL: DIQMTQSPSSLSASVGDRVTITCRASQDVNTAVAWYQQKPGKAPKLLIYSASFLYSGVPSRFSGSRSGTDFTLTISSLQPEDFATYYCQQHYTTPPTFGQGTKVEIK
notes: as for B1
B14: SRP2188-A10 (antibody, IgG1, V domains shown)
VH: B1 VH with K30N, Y59S, Y60H, F100Y
VL: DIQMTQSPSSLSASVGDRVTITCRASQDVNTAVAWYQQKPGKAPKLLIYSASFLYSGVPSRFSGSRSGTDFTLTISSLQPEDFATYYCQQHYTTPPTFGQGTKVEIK
notes: as for B1
B15: SRP2188-G04 (antibody, IgG1, V domains shown)
VH: B1 VH with K30F, S31D, W50G, N52D, E54R, D57S, Y59D, Y60H, F100Y, F103Y
VL: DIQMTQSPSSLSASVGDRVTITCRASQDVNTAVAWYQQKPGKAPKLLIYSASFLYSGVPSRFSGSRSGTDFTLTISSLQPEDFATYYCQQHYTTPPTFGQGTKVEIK
notes: as for B1
B16: SRP2188-C11 (antibody, IgG1, V domains shown)
VH: B1 VH with E54D, Y60L, F100Y
VL: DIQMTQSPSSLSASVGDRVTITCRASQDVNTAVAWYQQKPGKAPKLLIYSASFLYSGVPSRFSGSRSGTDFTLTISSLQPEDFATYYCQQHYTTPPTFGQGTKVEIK
notes: as for B1
B17: SRP2188-F02 (antibody, IgG1, V domains shown)
VH: B1 VH with K30S, S31D, G49A, N52D, E54S, D57S, Y59E, Y60H, N84S, F100Y
VL: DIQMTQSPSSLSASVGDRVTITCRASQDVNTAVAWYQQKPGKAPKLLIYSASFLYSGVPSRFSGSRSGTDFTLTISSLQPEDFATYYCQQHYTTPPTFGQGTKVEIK
notes: as for B1
B18: SRP2188-B10 (antibody, IgG1, V domains shown)
VH: B1 VH with K30N, E54H, Y60H, F100Y
VL: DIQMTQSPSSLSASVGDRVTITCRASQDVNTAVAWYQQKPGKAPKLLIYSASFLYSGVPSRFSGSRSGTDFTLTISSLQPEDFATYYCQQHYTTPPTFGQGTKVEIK
notes: as for B1
B19: SRP2188-E09 (antibody, IgG1, V domains shown)
VH: EVQLVESGGGLVQPGGSLRLSCAASGFNISDFDIHWVRQAPGKGLEWVAEIDPQDGWTVHADSVKGRFTISADTSKNTAYLQMNSLRAEDTAVYYCARDYGVFDYWGQGTLVTVSS
VL: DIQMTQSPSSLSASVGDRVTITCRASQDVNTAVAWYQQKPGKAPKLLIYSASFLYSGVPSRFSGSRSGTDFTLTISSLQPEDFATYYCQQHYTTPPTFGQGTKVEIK
notes: as for B1
B20: SRP2188-D08 (antibody, IgG1, V domains shown)
VH: B19 VH with S30R, F32Y, A49V, E50G, Q54D, W57A, V59D, H60E
VL: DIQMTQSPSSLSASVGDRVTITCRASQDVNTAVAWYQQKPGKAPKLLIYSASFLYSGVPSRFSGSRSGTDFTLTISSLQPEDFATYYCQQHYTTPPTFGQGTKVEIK
notes: as for B1
B21: SRP2188-C10 (antibody, IgG1, V domains shown)
VH: B1 VH with K30N, E54D, Y60H, F100Y
VL: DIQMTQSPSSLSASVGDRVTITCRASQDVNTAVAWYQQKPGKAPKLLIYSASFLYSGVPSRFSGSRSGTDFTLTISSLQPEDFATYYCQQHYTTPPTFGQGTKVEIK
notes: as for B1
B22: SRP2188-E11 (antibody, IgG1, V domains shown)
VH: B19 VH with D31H, F32Y, A49S, E50G, Q54G, W57A, V59D
VL: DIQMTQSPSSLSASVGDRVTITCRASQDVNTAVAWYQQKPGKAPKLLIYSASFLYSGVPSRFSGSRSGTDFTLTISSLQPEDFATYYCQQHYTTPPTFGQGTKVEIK
notes: as for B1
B23: SRP2188-F10 (antibody, IgG1, V domains shown)
VH: B19 VH with D31V, A49G, E50G, Q54N, W57A, V59D
VL: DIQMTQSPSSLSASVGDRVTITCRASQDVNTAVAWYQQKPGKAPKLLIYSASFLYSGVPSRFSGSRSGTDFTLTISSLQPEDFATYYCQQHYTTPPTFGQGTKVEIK
notes: as for B1
B24: SRP2188-F07 (antibody, IgG1, V domains shown)
VH: B19 VH with F32Y, A49G, E50G, Q54N, W57S, V59D, T78M
VL: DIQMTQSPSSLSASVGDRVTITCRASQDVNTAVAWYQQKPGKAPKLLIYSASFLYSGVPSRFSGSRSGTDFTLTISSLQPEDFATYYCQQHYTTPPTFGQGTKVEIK
notes: as for B1
B25: SRP2188-F05 (antibody, IgG1, V domains shown)
VH: B19 VH with F32Y, A49G, E50G, Q54R, W57A, V59D, H60S
VL: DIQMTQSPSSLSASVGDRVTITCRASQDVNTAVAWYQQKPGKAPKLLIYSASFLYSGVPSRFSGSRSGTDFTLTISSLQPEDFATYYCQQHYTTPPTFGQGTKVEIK
notes: as for B1
B26: SRP2188-A11 (antibody, IgG1, V domains shown)
VH: B19 VH with F32Y, A49S, E50L, Q54K, W57A, V59D, H60S, E89G
VL: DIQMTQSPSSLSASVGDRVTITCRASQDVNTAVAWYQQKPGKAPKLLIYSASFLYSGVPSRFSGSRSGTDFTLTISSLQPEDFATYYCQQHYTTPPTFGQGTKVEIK
notes: as for B1
B27: SRP2188-C06 (antibody, IgG1, V domains shown)
VH: B1 VH with K30N, E54D, Y60L, F100Y
VL: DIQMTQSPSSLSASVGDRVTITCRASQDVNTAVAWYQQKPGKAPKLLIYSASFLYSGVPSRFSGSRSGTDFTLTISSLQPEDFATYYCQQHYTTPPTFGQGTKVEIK
notes: as for B1
B28: SRP2188-B06 (antibody, IgG1, V domains shown)
VH: B1 VH with K30H, K43E, E54D, Y60H, F100Y
VL: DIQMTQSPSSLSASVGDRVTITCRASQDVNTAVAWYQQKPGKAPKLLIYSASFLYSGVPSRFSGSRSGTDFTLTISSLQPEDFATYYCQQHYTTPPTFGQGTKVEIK
notes: as for B1
B29: SRP2188-D11 (antibody, IgG1, V domains shown)
VH: B19 VH with P14T, S30R, F32Y, A49G, E50L, Q54D, W57S, V59D, H60E
VL: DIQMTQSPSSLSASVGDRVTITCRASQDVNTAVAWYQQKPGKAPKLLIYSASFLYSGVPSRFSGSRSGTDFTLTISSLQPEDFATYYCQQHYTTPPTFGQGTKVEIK
notes: as for B1
B30: SRP2188-E07 (antibody, IgG1, V domains shown)
VH: B19 VH with S30G, F32Y, D33G, A49G, E50G, Q54E, W57F, F103Y
VL: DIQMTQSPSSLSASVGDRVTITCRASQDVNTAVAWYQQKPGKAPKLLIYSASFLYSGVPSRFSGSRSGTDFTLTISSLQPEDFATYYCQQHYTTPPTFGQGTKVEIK
notes: as for B1
B31: SRP2188-B02 (antibody, IgG1, V domains shown)
VH: B1 VH with K30S, E54D, Y60L, N77S, F100Y
VL: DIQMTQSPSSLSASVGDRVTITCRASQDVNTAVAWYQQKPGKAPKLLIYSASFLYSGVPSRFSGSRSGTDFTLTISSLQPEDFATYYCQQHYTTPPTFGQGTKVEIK
notes: as for B1
B32: SRP2188-E08 (antibody, IgG1, V domains shown)
VH: B19 VH with S30I, A49G, E50G, W57S, V59D, H60L, F68L
VL: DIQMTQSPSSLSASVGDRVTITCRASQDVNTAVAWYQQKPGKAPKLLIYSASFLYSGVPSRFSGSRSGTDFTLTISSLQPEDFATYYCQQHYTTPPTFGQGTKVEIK
notes: as for B1
B33: SRP1944-A07 w SP34 LC3 (antibody, V domains shown)
VH: EVQLVESGGGLVQPGGSLRLSCAASGFNITGYYIHWVRQAPGKGLEWVGYISPNSGSTYYADSVKGRFTISADTSKNTAYLQMNSLRAEDTAVYYCARDSRRYVRPFDYWGQGTLVTVSS
VL: QTVVTQEPSLTVSPGGTVTLTCGSSTGAVTSGYYPNWFQQKPGQAPRGLIGGTKFLAPGTPARFSGSLLGGKAALTLSGVQPEDEAEYYCALWYSNRWVFGGGTQLTVTG
notes: Parent of SRP2196; IgG

target: T1, human ROR1 (hROR1) expressed on cells (human, UniProt Q01973 30-937); test: cell-based or functional assay

Row | Binder | Mino Nb-PBD, drug-conjugated 2° antibody Cell Killing IC50 [pM] | Mino Nb-PBD, drug-conjugated 2° antibody Cell Killing Span [%]
1 | B1 | 0.7 | 65
2 | B2 | 20 | 75

target: T1, human ROR1 (hROR1) expressed on cells; test: flow cytometry, HCT116-hROR1 cells

Row | Bmax (MFI) | Kd [pM] | Binder
3 | 9390 | 30 | B1
4 | 10600 | 50 | B3
5 | 9420 | 50 | B4
6 | 9970 | 40 | B5
7 | 9840 | 40 | B6
8 | 9500 | 30 | B7
9 | 8730 | 40 | B8
10 | 9510 | 60 | B9
11 | 8570 | 30 | B10
12 | 10100 | 380 | B11
13 | 8660 | 20 | B12
14 | 8950 | 20 | B13
15 | 9150 | 30 | B14
16 | 8990 | 20 | B15
17 | 9210 | 40 | B16
18 | 9850 | 30 | B17

Row | Bmax (MFI) | Kd [pM] | Binder
19 | 9000 | 40 | B18
20 | 9780 | 20 | B19
21 | 9600 | 50 | B20
22 | 9310 | 50 | B21
23 | 9250 | 30 | B22
24 | 8480 | 30 | B23
25 | 9870 | 30 | B24
26 | 9620 | 40 | B25
27 | 8340 | 60 | B26
28 | 9580 | 30 | B27
29 | 9130 | 60 | B28
30 | 9600 | 20 | B29
31 | 7600 | 20 | B30
32 | 9760 | 30 | B31
33 | 8130 | 180 | B2
34 | 9330 | 30 | B32

target: T2, human ROR1 (hROR1) (human, UniProt Q01973 30-937); test: flow cytometry, HCT116-hROR1 cells
T2 construct: On HCT116-hROR1 transfectants, Mino cells or Ntera-2 cells, as the assay of each row says; also called receptor tyrosine kinase like orphan receptor 1

Row | Bmax (MFI) | Kd [pM] | Binder
35 | 13200 | 100 | B33

target: T3, human ROR1 Frizzled domain (hROR1-Fz) (human, UniProt Q01973 165-305); test: SPR Biacore, IgG on anti-Fc, ROR1-Fz analyte
T3 construct: Acro Biosystems, made in HEK293
How it was run: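 Test antibodies captured on an anti-Fc surface (CM5 chip), then analyte bound for 180 s with 600 s dissociation at 25° C in HBS-EP+ buffer at 50 μL/min. Human ROR1 ECD, Frizzled or Kringle domain used as analyte; regeneration with 10 mM glycine pH 2.0.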

Row | Kd [pM] | koff [s⁻¹] | kon [M⁻¹ s⁻¹] | Binder
36 | 14300 | 0.0085 | 597000 | B33

target: T4, human ROR1-ECD (human, UniProt Q01973 30-406); test: SPR (Biacore), antibody captured by anti-Fc, human ROR1-ECD analyte
T4 construct: Bought protein; also called hROR1; ROR1-extracellular domain
Procedure: Anti-Fc polyclonal antibodies were immobilized onto a CMS chip (GE Life Sciences) using amine coupling chemistry (from Amine Coupling Kit, GE Life Sciences). The immobilization steps were carried out at a flow rate of 25 μL/min in 1×HBS-EP+buffer (GE Life Sciences; 10× Stock diluted before use). The sensor surfaces were activated for 7 min with a mixture of NHS (0.05 M) and EDC (0.2 M). The Anti-Fc antibodies were injected over all 4 flow cells at a concentration of 25 ug/ml in 10 mM sodium acetate, pH 4.5, for 7 min. Ethanolamine (1 M, pH 8.5) was injected for 7 min to block any remaining activated groups.
Off-rate and kinetic binding experiments were performed at 25° C. using 1×HBS-EP+buffer. Test and control antibodies were injected over the anti-Fc surface at concentrations of 5-10 μg/mL for 12 seconds at a flow rate of 10 μL/min on flow cells 2, 3 and 4, followed by a buffer wash for 30 seconds at the same flow rate. […] After capturing ligand (antibody) on the anti-Fc surface, the analyte (hROR1, Fz or Kr domains, Acro Biosystems, Delaware) was bound for 180 seconds, followed by a 600 second dissociation phase at a flow rate of 50 μL/min. Between each ligand capture and analyte binding cycle, regeneration was carried out using 2 injections of 10 mM Glycine pH 2.0 for 30 seconds at 30 μL/min, followed by a 30 second buffer wash step.

Row | Kd [pM] | koff [s⁻¹] | kon [M⁻¹ s⁻¹] | Binder
37 | 369 | 0.00031 | 840000 | B3
38 | 657 | 0.000579 | 882000 | B4
39 | 438 | 0.000346 | 790000 | B5
40 | 480 | 0.000359 | 747000 | B6
41 | 139 | 0.000101 | 723000 | B7
42 | 427 | 0.000453 | 1.06e+06 | B9
43 | 546 | 0.000316 | 578000 | B12
44 | 426 | 0.000222 | 522000 | B14
45 | 406 | 0.000259 | 639000 | B15
46 | 873 | 0.000617 | 707000 | B16
47 | 462 | 0.000539 | 1.17e+06 | B18
48 | 381 | 0.000268 | 703000 | B20
49 | 399 | 0.000399 | 1e+06 | B23
50 | 587 | 0.00051 | 870000 | B25
51 | 354 | 0.000379 | 1.07e+06 | B26
52 | 504 | 0.000467 | 927000 | B28
53 | 741 | 0.00055 | 743000 | B29

— patent US20240058465A1 (SUTRO BIOPHARMA, published 2024)
